According to PMC3778711, “The central role of mosquito cytochrome P450 CYP6Zs in insecticide detoxification revealed by functional expression and structural modelling” (Biochemical Journal, 2013):

What was measured:
[1] = biological target: T1, CYP6Z2 (AgCYP6Z2) (Anopheles gambiae, UniProt A8I285); test: reverse-phase HPLC, E. coli membranes; assay type: biochemical; settings: 10 μM substrate, 0.1 mM NADPH with regeneration system, 5 mM MgCl2, 30°C
T1 construct: with NADPH--cytochrome P450 reductase
T1 sequence (A8I285 1-492): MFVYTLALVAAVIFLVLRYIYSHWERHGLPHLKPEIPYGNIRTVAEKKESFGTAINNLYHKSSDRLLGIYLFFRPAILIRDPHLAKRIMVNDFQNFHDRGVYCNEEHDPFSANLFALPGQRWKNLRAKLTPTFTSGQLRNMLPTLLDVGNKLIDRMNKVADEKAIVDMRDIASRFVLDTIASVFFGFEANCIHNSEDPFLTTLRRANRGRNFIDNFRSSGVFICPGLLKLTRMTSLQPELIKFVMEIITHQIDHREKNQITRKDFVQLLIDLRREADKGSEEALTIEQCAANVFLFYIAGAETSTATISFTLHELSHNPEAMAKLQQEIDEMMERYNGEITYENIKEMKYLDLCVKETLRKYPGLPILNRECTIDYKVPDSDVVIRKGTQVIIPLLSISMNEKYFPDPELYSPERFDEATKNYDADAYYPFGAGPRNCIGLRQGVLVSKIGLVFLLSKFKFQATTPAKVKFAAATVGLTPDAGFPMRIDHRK
T1 sequence (Q86QH5 1-679 partner): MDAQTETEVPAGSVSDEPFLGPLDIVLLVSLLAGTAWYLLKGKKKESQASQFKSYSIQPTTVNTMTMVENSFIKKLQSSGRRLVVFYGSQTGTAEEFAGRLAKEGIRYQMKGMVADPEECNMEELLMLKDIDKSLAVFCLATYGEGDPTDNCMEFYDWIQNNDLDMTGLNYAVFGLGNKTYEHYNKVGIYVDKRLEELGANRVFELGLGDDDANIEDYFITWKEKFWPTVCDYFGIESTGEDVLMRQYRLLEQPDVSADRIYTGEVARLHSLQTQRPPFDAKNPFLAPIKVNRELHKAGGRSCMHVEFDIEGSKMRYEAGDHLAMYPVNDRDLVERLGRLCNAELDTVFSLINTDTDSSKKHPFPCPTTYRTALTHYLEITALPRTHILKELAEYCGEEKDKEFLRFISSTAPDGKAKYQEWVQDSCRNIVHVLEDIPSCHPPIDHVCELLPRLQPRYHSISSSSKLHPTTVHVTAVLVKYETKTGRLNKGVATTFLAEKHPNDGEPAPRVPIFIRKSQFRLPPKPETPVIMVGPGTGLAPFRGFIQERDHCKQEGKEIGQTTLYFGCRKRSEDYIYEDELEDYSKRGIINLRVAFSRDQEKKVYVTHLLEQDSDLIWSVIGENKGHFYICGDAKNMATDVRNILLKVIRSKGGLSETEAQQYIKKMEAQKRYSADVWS

[2] = substrate: CCCCCOc1ccc2nc3ccc(=O)cc-3oc2c1; test: resorufin fluorescence, yeast microsomes; assay type: biochemical, Aedes aegypti; settings: apparent, 0.1 mM NADPH with regeneration system, 0.1 M phosphate pH 7.4, 30°C, 15 min
Text: (§1) resorufin fluorescence, yeast microsomes on CYP6Z8 (W(AeR)-CYP6Z8 microsomes; CYP6Z8v1)

[3] = substrate: CCOc1ccc2nc3ccc(=O)cc-3oc2c1; test: resorufin fluorescence, yeast microsomes; assay type: biochemical, Aedes aegypti; settings: apparent, 0.1 mM NADPH with regeneration system, 0.1 M phosphate pH 7.4, 30°C, 15 min
Text: as §1

[4] = substrate: O=c1ccc2nc3ccc(OCc4ccccc4)cc3oc-2c1; test: resorufin fluorescence, yeast microsomes; assay type: biochemical, Aedes aegypti; settings: apparent, 0.1 mM NADPH with regeneration system, 0.1 M phosphate pH 7.4, 30°C, 15 min
Text: as §1

[5] = substrate: CCOc1ccc2ccc(=O)oc2c1; test: 7-hydroxycoumarin fluorescence (O-de-ethylation), yeast microsomes; assay type: biochemical, Aedes aegypti; settings: apparent, 0.1 mM NADPH with regeneration system, 0.1 M phosphate pH 7.4, 30°C, 15 min
Text: 7-hydroxycoumarin fluorescence (O-de-ethylation), yeast microsomes on CYP6Z8 (W(AeR)-CYP6Z8 microsomes; CYP6Z8v1)

[6] = substrate: OCc1cccc(Oc2ccccc2)c1; test: reverse-phase HPLC, yeast microsomes; assay type: biochemical, Aedes aegypti; settings: 0.1 mM NADPH with regeneration system, 5 mM MgCl2, 30°C

Molecule: OCc1cccc(Oc2ccccc2)c1 [PBAlc]
- reverse-phase HPLC, E. coli membranes [1]: demonstrated the ability of CYP6Z2 to metabolize both PBAlc and PBAld

Molecule: O=Cc1cccc(Oc2ccccc2)c1 [PBAld]
- reverse-phase HPLC, E. coli membranes [1]: demonstrated the ability of CYP6Z2 to metabolize both PBAlc and PBAld

B1: CYP6Z8 (W(AeR)-CYP6Z8 microsomes; CYP6Z8v1) (Aedes aegypti) (protein)
chain: MFIYTFALFWLAVAFAIRYIYSYWDRNGLPSIKPHIPYGNLKTVANRTESFGVATCDLYWKSKDRLVGIYLFFRPAVLIRDAHLAQQIMTTDFSHFHDRGVFCNEEVDPFSANLFALAGKRWRNLRNKFTPLFTGGQLRCMMPTILNVGHKLQNVLEPAAKKQEVLEIRELVSRCVLDIIASVFFGFEANCINDPNDAFIQNLRELQYDGFFNNLRAAATFICPELLKLTRISSLSPEMIRFVTDIVTKQIEHREKNNVTRKDFIQLLIDLRREDANNNEATLGLEECAANVFLFYVAGSDTSTSAVAFTLHELTQNVETMEKLQTEIDEMLVKTSGELTYDGIKEMSYLDLCVKETLRKYPGLAILNRECTKSYAVPNSNIVLKKGTQVVIPLLAYGMDEKYFPEPDRYLPERFDKSTKNYDEKAFYPFGEGPRNCIAFRMGVMVSKICLVLLLSRFNFEATRGPKINFTPSTVALLPKGGIPVKISIR
notes: full-length, no protein modification; codon-optimised gene in S. cerevisiae W(AeR) with Ae. aegypti CPR integrated; microsomes; with NADPH--cytochrome P450 reductase
- Km [2]: 13.96 ± 3.14 µM
- kcat [2]: 0.00217 ± 0.00017 s⁻¹
- Km [3]: 2.39 ± 0.28 µM
- kcat [3]: 0.0198 ± 0.00083 s⁻¹
- Km [4]: 0.13 ± 0.02 µM
- kcat [4]: 0.00162 ± 3.3e-05 s⁻¹
- Km [5]: 5.90 ± 0.90 µM
- kcat [5]: 0.0163 ± 0.00067 s⁻¹
- Km [6]: 15.1 ± 2.9 µM
- kcat [6]: 0.011 ± 0.0005 s⁻¹
